In PMC11514447, “Eukaryotic initiation factor 4B is a multi-functional RNA binding protein that regulates histone mRNAs”:

Target: eIF4B (UniProt P23588 1-611)
Experiment: fluorescence polarization; 2 mM ATP, 2 mM Mg2+; 20 mM HEPES/KOH pH 7.5, 100 mM KCl, 1 mM TCEP, 2 mM ATP, 2 mM MgCl2, 40 nM FAM-RNA, 60 min, 25 C; Kd values only in figures (one-site fit, n=3)
Details: protein: recombinant

Sequence of eIF4B (P23588 whole entry): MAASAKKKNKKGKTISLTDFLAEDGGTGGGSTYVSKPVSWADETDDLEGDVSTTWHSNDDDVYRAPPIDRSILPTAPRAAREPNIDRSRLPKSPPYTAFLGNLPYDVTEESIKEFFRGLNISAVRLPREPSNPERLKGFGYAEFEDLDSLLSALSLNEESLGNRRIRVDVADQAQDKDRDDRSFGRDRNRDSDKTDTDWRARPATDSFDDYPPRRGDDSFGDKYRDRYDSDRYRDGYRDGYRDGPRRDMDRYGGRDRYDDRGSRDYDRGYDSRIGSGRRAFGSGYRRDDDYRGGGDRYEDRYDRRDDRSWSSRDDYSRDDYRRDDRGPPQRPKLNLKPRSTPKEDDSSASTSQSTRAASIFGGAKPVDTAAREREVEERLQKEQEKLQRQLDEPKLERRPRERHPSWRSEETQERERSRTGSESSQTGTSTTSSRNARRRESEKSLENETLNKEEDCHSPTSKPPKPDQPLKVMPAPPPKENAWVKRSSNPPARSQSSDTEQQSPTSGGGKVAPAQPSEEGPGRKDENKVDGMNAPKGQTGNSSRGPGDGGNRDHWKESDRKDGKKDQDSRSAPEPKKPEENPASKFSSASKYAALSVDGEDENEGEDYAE

Binder	binding result	binding result (3' hairpin, 6-bp stem, 4-nt loop)
GCUGCACUCUUAUUUUCAUUUUCAACCAAA (ssRNA) [His4-ssRNA]	binds	
GGCUGGCGUGAGGGUCUCCCUUGAUCUGAGAAUG (ssRNA) [CDK4-5'UTR]	binds	
His1-FL (structured_RNA) RNA: UCCUUUGGCCAACUGCUUAGAAGCCCAACACAACCCAAAGGCUCUUUUCAGAGCCACCCA		binds
UCCUUUGGCCAACUGCUUAGAAGCCCAACACAACCCAAA (ssRNA) [His1-ssRNA]	binds	
